Measurements from patent publication US6784153B1, “Methods of homing molecules to lung using membrane dipeptidase” (The Burnham Institute, priority 1998, dated 2004).
Entries after “also recorded” stand apart in the source; their conditions may differ.

Columns and labels:
primary brain cells = test: phage binding assay on primary brain cells; parameters: species or system mice; settings: in vitro
Protocol: Phage binding to primary cells was performed as follows. Briefly, Balb/c mice (Harlan Sprague Dawley) were anesthetized with 0.017 ml/g of Avertin as described in Gardner et al., Lab. Animal Sci. 45:199-204 (1995), which is incorporated herein by reference. Under deep anesthesia, mice were perfused through the heart with 10 ml Dulbecco's modified Eagle's medium (DMEM; Irvine Scientific; Santa Ana, Calif.). The lungs, kidneys and brain were then collected, minced, placed in 2 ml of DMEM containing 0.5% BSA (Intergen; Purchase, N.Y.) and 0.5 μg/ml collagenase V (SIGMA) and incubated at 37° C. for 25 minutes. Following collagenase treatment, the tissue was forced through a […] pore cell strainer (Becton Dickinson; Franklin Lake, N.J.). The filtered cells were washed once with 10 ml DMEM supplemented with 10% serum. […] To ensure an equal input of the different phage to be tested, phage were titered several times using K91Kan bacteria (Smith and Scott, supra, 1993).
For the binding reaction, 10^9 transducing units (TU) of phage were incubated with 5×10^6 cells in 1 ml DMEM supplemented with 10% serum. The binding was performed at 4° C. for 2 hours with gentle agitation. […] Plates were incubated at 37° C. overnight before the colonies were counted (transducing units, TU).

murine MDP = target: T1, murine MDP (Mus musculus, UniProt P31428); test: phage binding to COS-1 cells transfected with MDP
T1 construct: The amplified 1.3 kb murine MDP cDNA was digested with KpnI and XbaI, and inserted into the same sites of the pcDNA3 expression vector; expressed in transfected cells; host or cells: COS-1 cells, pcDNA3 expression vector
T1 sequence (P31428 17-384): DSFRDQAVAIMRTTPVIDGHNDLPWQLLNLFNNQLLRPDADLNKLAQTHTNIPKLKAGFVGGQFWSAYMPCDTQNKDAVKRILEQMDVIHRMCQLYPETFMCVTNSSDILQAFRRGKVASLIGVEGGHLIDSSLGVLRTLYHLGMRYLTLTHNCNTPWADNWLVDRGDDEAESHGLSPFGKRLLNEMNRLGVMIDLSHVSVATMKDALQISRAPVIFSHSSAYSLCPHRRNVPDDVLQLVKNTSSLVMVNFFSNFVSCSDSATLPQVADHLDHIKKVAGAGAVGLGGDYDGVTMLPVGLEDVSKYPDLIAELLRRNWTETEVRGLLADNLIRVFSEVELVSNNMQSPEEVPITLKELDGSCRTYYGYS
Protocol: The COS-1 cell line, which is known to have low or no detectable level of MDP activity, has been used extensively to study MDP structure and function (Keynan et al., supra, 1996; Keynan et al., Biochem, J. 326:47-51 (1997)). COS-1 cells were trasfected with murine MDP and used to assay binding to SEQ ID NOS: 1 and 2 as described below.
For transfection into COS-1 cells, a murine MDP expression vector was prepared as follows. Total mouse lung RNA was isolated using Qiagen RNA purification columns (Qiagen; Santa Clarita, Calif.) and used as a template for first strand cDNA synthesis with reverse transcriptase and a mixture of random hexamers and poly-dT oligonucleotides (GIBCO/BRL; Grand Island, N.Y.). Mouse MDP cDNA (Pasqualini et al., J. Cell Biol. 130:1189-1196 (1995)) was amplified from the cDNA pool by PCR using the oligonucleotide pair: […] (SEQ ID NO: 446), which contains a KpnI adaptor, and […] (SEQ ID NO: 447), which contains an XbaI adaptor, using Taq polymerase from GIBCO/BRL. The amplified 1.3 kb murine MDP cDNA was digested with KpnI and XbaI, and inserted into the same sites of the pcDNA3 expression vector (Invitrogen; Carlsbad, Calif.) using DNA restriction enzymes and T4 DNA ligase from New England Biolabs (Beverly, Mass.). Successful cloning of the murine MDP cDNA was confirmed by DNA sequencing. Transfection of the COS-1 cells was performed with the Superfect Reagent from Qiagen as recommended by the manufacturer.
(§1) Phage binding to COS-1 cells transfected with MDP was determined as follows. Briefly, 10^7 COS-1 cells were transfected with 10 μg of either the MDP expression vector or the vector alone. After 48 hours, cells were scraped gently from the dish, washed once, and subjected to the phage binding assay or membrane dipeptidase activity assay described above. For the phage binding assay, 5×10^6 cells and 10^10 transducing units (TU) of phage input were used. For measurement of membrane dipeptidase activity, 10^6 cells were lysed in 100 μl of PBS/octylglycoside without protease inhibitors. A 10 μl aliquot of the extract was used to measure MDP activity.

rat lung blood vessels = test: targeting of rat lung blood vessels by injected phage; type: in vivo; settings: phage injected in the circulation
MDP = target: T2, MDP (Mus musculus, UniProt P31428); test: inhibition of MDP activity (hydrolysis of Gly-D-Phe, fluorimetric); type: biochemical, murine; settings: Gly-D-Phe 0.5 mM; extracts from MDP-expressing COS-1 cells; listed as GFE-1
T2 construct: The amplified 1.3 kb murine MDP cDNA was digested with KpnI and XbaI, and inserted into the same sites of the pcDNA3 expression vector; expressed in transfected cells; host or cells: COS-1 cells, pcDNA3 expression vector
T2 sequence (P31428 17-384): T1 sequence (P31428 17-384)
Protocol: […] […] Fluorescence was measured using an fmax fluorescence microplate reader from Molecular Devices (Sunnyvale, Calif.).
as §1
Fluorimetric detection of D-Phe was performed as described above.

Sequence: CGFECVRQCPERC [lung homing peptide]
- phage binding to primary brain cells (primary brain cells): no specific binding
- phage bound to MDP transfected cells than to mock transfected cells (murine MDP; 5×10^6 COS-1 cells, 10^10 TU phage): 4 fold
- inhibition of binding of GFE-1 and GFE-2 phage to MDP-transfected cells (murine MDP; data not shown): completely inhibited
- targeting of rat lung blood vessels (rat lung blood vessels): selectively target rat lung blood vessels
- inhibition of hydrolysis of Gly-D-Phe by MDP (MDP): inhibits hydrolysis of the Gly-D-Phe substrate in a dose-dependent manner; also recorded: inhibited hydrolysis of the Gly-D-Phe substrate (0.5 mM) in a dose-dependent manner; also recorded: inhibition of MDP activity
